Legend:
[1] = molecular target: IL-15R on human PBMCs (NK cells, CD8+ T cells, CD4+ T cells) (human); test: cell-based or functional assay
[2] = molecular target: IL-2/IL-15 receptor on IL-2/IL-15-responsive HEK293 cells (human CD25 (IL-2Rα), CD122 (IL-2Rβ), CD132 (IL-2Rγ)) (human) (UniProt P01589); test: cell-based or functional assay
IL-2/IL-15 receptor on IL-2/IL-15-responsive HEK293 cells (human CD25 (IL-2Rα), CD122 (IL-2Rβ), CD132 (IL-2Rγ)) (human), sequence (P01589 22-272, chain 1 of 3): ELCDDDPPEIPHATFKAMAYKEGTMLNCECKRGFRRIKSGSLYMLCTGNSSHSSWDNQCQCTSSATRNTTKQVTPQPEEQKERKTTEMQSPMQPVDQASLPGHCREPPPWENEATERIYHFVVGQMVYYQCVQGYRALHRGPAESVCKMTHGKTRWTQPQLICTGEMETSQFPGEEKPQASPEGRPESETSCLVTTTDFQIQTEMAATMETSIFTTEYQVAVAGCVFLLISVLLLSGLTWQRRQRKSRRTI
IL-2/IL-15 receptor on IL-2/IL-15-responsive HEK293 cells (human CD25 (IL-2Rα), CD122 (IL-2Rβ), CD132 (IL-2Rγ)) (human), sequence (P14784 27-551, chain 2 of 3, further chain): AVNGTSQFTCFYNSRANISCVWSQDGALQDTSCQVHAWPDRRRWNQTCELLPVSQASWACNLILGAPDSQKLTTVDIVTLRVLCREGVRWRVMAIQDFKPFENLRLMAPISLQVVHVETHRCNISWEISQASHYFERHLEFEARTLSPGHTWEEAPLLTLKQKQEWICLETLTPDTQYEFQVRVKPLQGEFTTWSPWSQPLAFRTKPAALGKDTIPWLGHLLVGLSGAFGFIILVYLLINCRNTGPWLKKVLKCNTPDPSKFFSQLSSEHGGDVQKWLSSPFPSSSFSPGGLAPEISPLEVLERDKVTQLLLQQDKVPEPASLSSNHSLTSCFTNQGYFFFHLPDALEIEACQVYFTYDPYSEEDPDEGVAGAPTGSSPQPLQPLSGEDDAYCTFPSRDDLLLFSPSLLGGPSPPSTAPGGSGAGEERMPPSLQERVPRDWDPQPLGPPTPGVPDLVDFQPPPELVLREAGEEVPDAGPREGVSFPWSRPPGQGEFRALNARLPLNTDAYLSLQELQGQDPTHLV
IL-2/IL-15 receptor on IL-2/IL-15-responsive HEK293 cells (human CD25 (IL-2Rα), CD122 (IL-2Rβ), CD132 (IL-2Rγ)) (human), sequence (P31785 23-369, chain 3 of 3, further chain): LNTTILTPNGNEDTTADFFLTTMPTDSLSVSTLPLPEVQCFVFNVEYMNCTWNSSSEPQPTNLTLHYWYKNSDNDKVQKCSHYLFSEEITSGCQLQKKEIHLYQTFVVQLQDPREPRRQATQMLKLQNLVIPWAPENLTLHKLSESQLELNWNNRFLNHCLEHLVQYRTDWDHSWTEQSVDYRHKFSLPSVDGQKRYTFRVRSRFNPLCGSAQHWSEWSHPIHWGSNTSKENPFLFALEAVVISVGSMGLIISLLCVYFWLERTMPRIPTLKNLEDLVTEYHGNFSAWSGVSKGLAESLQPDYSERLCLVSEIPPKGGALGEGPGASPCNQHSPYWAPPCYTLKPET

## PeproTech IL-15 (Recombinant human IL-15, available from PeproTech, Catalog #200-15) (from UniProt P40933 49-162) (ligand)
[1]
  EC50: Human PBMC Proliferation Ki67, CD4: 0.121 nM
  EC50: Human PBMC Proliferation Ki67, CD8: 0.221 nM
  EC50: Human PBMC Proliferation Ki67, NK Cells: 4 pM
  EC50: Human PBMC STAT5 Phosphorylation, CD4: 6.97 pM
  EC50: Human PBMC STAT5 Phosphorylation, CD8: 6.4 pM
  EC50: Human PBMC STAT5 Phosphorylation, NK cells: 1.79 pM
[2]
  EC50: HEK-Blue Reporter Assay: 1.48 pM
  EC50: HEK-Blue Reporter Assay (average, n>3): 1.46 pM
